The values below are quoted from earlier work in article PMC12990809.

Targets include IGF2BP3 (Homo sapiens) (UniProt O00425); FXR1 (Homo sapiens) (UniProt P51114); PABPC5 (Homo sapiens) (UniProt Q96DU9); KHDRBS1 (Homo sapiens) (UniProt Q07666); PCBP1 (Homo sapiens) (UniProt Q15365); CELF5 (Homo sapiens) (UniProt Q8N6W0); CELF6 (Homo sapiens) (UniProt Q96J87); HNRNPCL1 (Homo sapiens) (UniProt O60812).
Test in all cases: pulldown
Holding throughout (conditions): 20 nM protein, 1.5 uM RNA pool; 20 mM HEPES pH 7.8, 70 mM KCl, 10 mM NaCl, 10% glycerol, 2 mM DTT, 0.1 ug/uL BSA; 30 min, 4 C (protocol of this paper; not …); cited from earlier work

Another data set deals with T1, HNRNPLL (Homo sapiens) (UniProt Q8WVV9).
T1 sequence: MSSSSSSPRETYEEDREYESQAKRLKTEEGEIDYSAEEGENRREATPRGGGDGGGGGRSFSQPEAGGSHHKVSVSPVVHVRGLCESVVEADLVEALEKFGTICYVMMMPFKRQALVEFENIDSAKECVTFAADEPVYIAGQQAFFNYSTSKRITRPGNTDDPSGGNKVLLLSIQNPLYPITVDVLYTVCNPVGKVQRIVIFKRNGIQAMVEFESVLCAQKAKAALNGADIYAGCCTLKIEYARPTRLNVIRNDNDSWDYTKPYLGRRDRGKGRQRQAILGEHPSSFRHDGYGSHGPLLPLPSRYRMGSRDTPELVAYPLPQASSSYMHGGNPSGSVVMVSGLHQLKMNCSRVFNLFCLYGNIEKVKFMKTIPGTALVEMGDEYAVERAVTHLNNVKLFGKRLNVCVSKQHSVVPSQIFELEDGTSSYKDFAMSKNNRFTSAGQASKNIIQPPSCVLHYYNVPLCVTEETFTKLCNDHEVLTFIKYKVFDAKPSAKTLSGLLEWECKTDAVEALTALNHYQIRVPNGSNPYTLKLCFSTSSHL

Data set [1] has as its target T2, mec-8 (Caenorhabditis elegans) (UniProt G5ECJ4).
T2 sequence: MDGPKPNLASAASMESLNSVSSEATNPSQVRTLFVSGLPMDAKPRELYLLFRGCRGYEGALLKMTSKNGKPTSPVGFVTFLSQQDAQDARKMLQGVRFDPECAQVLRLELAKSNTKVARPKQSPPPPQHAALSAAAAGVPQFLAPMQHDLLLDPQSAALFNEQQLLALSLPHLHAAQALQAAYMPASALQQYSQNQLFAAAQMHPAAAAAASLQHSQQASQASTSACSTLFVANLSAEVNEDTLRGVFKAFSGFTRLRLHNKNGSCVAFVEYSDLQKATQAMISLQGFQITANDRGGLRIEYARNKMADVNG

Another data set deals with T3, KHDRBS2 (Homo sapiens) (UniProt Q5VWX1).
T3 sequence: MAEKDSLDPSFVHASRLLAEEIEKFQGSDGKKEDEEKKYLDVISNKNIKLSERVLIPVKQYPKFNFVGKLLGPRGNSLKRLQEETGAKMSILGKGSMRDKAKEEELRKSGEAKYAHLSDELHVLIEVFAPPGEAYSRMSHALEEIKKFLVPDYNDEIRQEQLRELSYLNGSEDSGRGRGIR

The target in a further data set is T4, HNRNPH2 (Homo sapiens) (UniProt P55795).
T4 sequence: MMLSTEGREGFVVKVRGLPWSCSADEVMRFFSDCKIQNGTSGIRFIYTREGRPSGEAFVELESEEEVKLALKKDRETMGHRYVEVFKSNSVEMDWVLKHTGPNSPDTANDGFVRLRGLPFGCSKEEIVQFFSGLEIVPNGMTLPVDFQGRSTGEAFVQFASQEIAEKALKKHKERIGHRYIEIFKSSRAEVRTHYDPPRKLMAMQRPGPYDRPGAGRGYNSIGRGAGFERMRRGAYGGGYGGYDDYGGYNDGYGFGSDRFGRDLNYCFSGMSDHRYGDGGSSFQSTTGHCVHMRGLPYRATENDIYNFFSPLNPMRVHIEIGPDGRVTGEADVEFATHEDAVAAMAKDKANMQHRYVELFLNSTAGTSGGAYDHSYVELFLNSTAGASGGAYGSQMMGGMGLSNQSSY

The next data set concerns the target T5, RBM24 (Homo sapiens) (UniProt Q9BX46).
T5 sequence: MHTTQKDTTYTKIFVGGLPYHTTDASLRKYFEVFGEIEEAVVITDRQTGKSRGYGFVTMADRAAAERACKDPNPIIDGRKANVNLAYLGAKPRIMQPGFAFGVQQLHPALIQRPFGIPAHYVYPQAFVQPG

Data set [2] addresses T6, etr-1 (Caenorhabditis elegans) (UniProt A8DYS0).
T6 sequence: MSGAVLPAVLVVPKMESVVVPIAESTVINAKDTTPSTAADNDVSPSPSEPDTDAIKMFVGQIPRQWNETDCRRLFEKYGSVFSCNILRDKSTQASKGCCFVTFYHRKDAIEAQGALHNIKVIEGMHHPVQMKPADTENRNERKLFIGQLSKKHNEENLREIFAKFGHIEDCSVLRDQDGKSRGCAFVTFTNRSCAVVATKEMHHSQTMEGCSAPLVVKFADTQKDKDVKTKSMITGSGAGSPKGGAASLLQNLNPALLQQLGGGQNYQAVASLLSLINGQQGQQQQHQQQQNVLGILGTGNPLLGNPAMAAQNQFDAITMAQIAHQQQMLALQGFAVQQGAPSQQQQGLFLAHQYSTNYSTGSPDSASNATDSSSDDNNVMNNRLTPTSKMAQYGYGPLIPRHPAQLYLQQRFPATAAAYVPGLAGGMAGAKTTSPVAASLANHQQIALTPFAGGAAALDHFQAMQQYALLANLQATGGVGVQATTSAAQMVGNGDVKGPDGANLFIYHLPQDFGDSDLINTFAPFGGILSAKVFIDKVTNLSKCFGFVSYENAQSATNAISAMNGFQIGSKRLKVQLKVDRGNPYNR

A further data set concerns the target T7, DAZAP1 (Homo sapiens) (UniProt Q96EP5).
T7 sequence: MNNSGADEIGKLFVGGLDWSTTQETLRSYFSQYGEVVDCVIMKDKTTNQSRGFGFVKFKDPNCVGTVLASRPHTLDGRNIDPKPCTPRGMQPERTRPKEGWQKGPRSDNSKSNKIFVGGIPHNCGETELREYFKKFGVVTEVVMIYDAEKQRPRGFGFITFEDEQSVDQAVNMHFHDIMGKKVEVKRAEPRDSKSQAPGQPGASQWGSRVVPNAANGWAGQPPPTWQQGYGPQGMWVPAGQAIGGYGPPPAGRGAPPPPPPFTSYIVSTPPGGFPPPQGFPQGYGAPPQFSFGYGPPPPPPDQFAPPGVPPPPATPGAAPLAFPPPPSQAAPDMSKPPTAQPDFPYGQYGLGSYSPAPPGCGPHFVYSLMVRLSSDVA

The target in data set [3] is T8, sup-26 (Caenorhabditis elegans) (UniProt D5MCR3).
T8 sequence: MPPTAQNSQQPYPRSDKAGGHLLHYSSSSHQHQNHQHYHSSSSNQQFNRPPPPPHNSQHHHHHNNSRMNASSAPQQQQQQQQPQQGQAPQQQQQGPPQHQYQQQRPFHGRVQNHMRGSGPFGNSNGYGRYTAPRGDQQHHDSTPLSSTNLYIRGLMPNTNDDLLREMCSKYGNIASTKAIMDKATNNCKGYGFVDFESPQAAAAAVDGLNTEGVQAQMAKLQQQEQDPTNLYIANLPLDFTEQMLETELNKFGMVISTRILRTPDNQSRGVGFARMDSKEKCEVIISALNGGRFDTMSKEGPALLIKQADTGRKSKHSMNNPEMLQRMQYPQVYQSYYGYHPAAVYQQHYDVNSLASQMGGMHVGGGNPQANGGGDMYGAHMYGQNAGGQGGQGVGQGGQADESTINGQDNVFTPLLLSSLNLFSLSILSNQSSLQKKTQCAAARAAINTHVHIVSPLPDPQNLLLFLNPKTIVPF

A further data set deals with T9, A2BP1 (Homo sapiens) (UniProt Q9NWB1).
T9 sequence: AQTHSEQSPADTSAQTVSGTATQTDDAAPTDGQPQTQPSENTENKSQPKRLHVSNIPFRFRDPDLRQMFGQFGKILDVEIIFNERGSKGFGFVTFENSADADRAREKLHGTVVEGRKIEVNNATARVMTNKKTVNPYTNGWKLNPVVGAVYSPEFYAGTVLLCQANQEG

Data set [4] concerns the target T10, asd-1 (Caenorhabditis elegans) (UniProt A1BPT6).
T10 sequence: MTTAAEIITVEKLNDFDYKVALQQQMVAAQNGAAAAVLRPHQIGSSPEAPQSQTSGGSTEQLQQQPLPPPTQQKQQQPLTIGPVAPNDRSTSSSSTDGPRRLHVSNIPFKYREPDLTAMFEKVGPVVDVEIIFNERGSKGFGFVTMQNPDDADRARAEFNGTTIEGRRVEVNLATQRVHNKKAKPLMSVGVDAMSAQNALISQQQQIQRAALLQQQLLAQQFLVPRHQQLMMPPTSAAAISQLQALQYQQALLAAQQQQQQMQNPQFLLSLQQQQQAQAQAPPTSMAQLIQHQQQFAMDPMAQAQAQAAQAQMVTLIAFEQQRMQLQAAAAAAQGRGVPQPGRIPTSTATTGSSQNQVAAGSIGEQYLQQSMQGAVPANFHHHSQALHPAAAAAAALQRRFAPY

Data set [5] addresses T11, sup-12 (Caenorhabditis elegans) (UniProt O45189).
T11 sequence: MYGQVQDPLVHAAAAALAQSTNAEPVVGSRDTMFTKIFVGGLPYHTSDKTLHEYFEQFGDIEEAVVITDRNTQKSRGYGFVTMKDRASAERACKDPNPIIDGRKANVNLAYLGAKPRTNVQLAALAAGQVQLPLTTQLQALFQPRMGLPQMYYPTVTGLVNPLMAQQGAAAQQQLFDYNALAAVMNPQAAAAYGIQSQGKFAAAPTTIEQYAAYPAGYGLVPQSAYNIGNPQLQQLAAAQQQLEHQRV

In data set [6] the target is T12, exc-7 (Caenorhabditis elegans) (UniProt Q20084).
T12 sequence: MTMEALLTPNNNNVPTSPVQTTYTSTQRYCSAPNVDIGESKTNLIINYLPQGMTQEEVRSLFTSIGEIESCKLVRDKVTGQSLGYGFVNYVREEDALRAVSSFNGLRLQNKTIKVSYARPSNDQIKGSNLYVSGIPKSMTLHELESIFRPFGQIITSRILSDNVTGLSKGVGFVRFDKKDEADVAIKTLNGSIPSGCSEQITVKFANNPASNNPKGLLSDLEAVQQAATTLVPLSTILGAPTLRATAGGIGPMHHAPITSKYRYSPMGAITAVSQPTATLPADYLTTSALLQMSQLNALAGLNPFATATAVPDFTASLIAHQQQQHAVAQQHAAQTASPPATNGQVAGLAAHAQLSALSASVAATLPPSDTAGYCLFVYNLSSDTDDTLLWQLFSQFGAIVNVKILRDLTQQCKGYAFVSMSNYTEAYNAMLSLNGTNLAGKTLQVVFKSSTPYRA

CELF5 (Homo sapiens), sequence (Q8N6W0 whole entry): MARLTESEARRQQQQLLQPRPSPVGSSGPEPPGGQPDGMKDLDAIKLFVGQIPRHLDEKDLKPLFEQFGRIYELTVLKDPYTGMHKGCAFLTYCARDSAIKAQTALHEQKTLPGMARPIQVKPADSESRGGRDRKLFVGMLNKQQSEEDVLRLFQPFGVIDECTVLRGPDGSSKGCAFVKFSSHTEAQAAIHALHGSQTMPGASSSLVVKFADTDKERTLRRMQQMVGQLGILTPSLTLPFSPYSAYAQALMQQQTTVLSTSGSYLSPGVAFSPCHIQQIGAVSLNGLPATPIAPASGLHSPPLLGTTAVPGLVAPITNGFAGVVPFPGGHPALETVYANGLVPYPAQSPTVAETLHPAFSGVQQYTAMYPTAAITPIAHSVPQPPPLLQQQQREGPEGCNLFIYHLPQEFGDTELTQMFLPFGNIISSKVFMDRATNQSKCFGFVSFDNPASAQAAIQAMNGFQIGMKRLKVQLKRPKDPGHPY
FXR1 (Homo sapiens), sequence (P51114 170-401): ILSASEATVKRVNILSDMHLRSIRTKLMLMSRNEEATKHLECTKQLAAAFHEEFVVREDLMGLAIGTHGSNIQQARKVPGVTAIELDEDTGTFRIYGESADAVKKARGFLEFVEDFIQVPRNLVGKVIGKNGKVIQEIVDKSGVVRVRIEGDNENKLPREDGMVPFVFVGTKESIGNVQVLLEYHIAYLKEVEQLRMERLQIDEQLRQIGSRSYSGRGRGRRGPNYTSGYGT
PCBP1 (Homo sapiens), sequence (Q15365 whole entry): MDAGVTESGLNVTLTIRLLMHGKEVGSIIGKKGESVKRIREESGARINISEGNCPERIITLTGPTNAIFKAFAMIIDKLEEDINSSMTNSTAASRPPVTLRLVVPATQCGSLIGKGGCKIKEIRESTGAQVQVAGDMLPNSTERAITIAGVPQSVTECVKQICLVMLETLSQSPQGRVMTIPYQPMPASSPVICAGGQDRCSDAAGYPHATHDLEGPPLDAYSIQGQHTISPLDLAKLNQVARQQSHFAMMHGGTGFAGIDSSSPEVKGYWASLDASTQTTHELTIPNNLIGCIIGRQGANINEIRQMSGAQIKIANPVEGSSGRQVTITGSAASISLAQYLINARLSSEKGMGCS
CELF6 (Homo sapiens), sequence (Q96J87 whole entry): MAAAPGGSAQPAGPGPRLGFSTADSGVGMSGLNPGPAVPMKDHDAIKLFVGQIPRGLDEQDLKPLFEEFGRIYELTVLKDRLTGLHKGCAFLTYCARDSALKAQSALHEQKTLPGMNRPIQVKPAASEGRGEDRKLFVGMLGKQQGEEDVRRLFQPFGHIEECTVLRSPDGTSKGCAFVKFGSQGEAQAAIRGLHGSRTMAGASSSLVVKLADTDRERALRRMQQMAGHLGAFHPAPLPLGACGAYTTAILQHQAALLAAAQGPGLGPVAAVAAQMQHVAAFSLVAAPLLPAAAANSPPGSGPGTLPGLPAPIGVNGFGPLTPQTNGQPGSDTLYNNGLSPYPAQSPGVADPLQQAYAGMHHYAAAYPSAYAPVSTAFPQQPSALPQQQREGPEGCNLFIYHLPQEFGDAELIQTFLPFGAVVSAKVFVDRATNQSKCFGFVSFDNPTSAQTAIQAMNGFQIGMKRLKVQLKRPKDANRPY
IGF2BP3 (Homo sapiens), sequence (O00425 whole entry): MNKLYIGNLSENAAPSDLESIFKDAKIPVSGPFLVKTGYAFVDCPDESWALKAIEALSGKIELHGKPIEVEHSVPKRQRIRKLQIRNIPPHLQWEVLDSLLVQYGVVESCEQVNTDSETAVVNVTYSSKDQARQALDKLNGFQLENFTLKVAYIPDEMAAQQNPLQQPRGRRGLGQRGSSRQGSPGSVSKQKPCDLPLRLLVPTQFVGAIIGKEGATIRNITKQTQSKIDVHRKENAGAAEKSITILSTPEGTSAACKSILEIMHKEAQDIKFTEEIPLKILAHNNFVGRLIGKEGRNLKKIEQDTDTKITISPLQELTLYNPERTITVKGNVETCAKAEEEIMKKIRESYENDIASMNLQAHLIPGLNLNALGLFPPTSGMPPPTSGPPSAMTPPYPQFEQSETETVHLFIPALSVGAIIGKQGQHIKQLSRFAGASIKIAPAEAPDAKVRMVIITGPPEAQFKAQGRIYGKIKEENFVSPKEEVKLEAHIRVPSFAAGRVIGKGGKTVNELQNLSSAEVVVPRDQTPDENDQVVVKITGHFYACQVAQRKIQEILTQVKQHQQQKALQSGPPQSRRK
HNRNPCL1 (Homo sapiens), sequence (O60812 1-131): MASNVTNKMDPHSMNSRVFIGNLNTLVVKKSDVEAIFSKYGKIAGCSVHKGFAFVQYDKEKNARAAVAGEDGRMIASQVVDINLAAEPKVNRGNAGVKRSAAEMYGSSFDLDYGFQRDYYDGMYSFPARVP
PABPC5 (Homo sapiens), sequence (Q96DU9 whole entry): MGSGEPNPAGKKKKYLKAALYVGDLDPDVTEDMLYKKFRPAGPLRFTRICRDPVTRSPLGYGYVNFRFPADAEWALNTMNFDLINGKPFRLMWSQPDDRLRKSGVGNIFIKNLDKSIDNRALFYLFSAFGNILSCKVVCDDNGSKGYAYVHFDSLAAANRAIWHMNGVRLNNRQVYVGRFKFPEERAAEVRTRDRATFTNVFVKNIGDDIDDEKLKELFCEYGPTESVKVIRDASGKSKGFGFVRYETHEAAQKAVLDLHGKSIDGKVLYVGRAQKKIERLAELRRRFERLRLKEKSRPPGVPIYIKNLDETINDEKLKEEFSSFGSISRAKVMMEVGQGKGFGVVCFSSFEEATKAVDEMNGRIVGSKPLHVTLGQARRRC
KHDRBS1 (Homo sapiens), sequence (Q07666 107-291): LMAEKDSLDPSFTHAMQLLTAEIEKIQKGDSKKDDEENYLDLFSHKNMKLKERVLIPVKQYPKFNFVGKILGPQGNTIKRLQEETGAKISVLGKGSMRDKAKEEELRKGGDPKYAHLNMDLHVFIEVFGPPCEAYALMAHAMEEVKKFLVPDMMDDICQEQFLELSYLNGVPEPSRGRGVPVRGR

AACAA [RNAcompete motif RNCMPT00172]: the binding signal (z-score (mean of top ten 7-mers)) with IGF2BP3 (Homo sapiens) was 6.02.
Consider AAUGACAA [RNAcompete motif RNCMPT00161], for which the binding signal (z-score (mean of top ten 7-mers)) in the data set with FXR1 (Homo sapiens) was 6.01.
Take ACANACA [RNAcompete motif RNCMPT00178]: the binding signal (z-score (mean of top ten 7-mers)) with HNRNPLL (Homo sapiens) was 9.56.
Turning to AGAAANU [RNAcompete motif RNCMPT00171], the binding signal (z-score (mean of top ten 7-mers)) with PABPC5 (Homo sapiens) was 7.11.
Consider AGCACA [RNAcompete motif RNCMPT00181], for which, in data set [1], the binding signal (z-score (mean of top ten 7-mers)) was 8.36.
On to AUAAA [RNAcompete motif RNCMPT00185], for which the binding signal (z-score (mean of top ten 7-mers)) in the data set with KHDRBS2 (Homo sapiens) was 8.2.
As for AUAAAAG [RNAcompete motif RNCMPT00169], in the data set with KHDRBS1 (Homo sapiens), the binding signal (z-score (mean of top ten 7-mers)) was 9.86.
Take CCNANCC [RNAcompete motif RNCMPT00186]: the binding signal (z-score (mean of top ten 7-mers)) with PCBP1 (Homo sapiens) is 6.42.
Regarding GGGAGGG [RNAcompete motif RNCMPT00160], the binding signal (z-score (mean of top ten 7-mers)) with HNRNPH2 (Homo sapiens) is 16.8.
As for GUGUGA [RNAcompete motif RNCMPT00184], the binding signal (z-score (mean of top ten 7-mers)) in the data set with RBM24 (Homo sapiens) is 10.6.
As to GUGUGUG [RNAcompete motif RNCMPT00166], in the data set with CELF5 (Homo sapiens), the binding signal (z-score (mean of top ten 7-mers)) is 9.48.
Take GUGUGUU [RNAcompete motif RNCMPT00183]: the binding signal (z-score (mean of top ten 7-mers)) in [2] was 8.98.
Turning to UAGGUAG [RNAcompete motif RNCMPT00013], the binding signal (z-score (mean of top ten 7-mers)) with DAZAP1 (Homo sapiens) is 7.92.
In the case of UAUAUA [RNAcompete motif RNCMPT00182], the binding signal (z-score (mean of top ten 7-mers)) in [3] is 6.85.
In the case of UGCAUG [RNAcompete motif RNCMPT00168], in the data set with A2BP1 (Homo sapiens), the binding signal (z-score (mean of top ten 7-mers)) is 23.3.
For UGCAUGA [RNAcompete motif RNCMPT00180], the binding signal (z-score (mean of top ten 7-mers)) in [4] was 20.3.
Regarding UGUGGUG [RNAcompete motif RNCMPT00187], the binding signal (z-score (mean of top ten 7-mers)) with CELF6 (Homo sapiens) was 7.27.
For UGUGUG [RNAcompete motif RNCMPT00416], the binding signal (z-score (mean of top ten 7-mers)) in data set [5] is 10.8.
Consider UUAAGUU [RNAcompete motif RNCMPT00014], for which, in [6], the binding signal (z-score (mean of top ten 7-mers)) is 13.7.
As to UUUUUU [RNAcompete motif RNCMPT00167], the binding signal (z-score (mean of top ten 7-mers)) in the data set with HNRNPCL1 (Homo sapiens) is 18.4.
